Tests used:
[1] = biological target: the molecule itself; test: induced oligomerization assay; RIP2 and NLRC4–CARD monomers each mixed with their own and with other seed complexes (Supplementary Figure 4d)
[2] = biological target: the molecule itself; test: negative stain EM; recombinant SNAP–RIP2–CARD seeds co-incubated with refolded monomers (about 20 μM monomer, 10:1 monomer to seed, overnight); SNAP removed with 3C protease for the core filaments; 49,000x
[3] = biological target: the molecule itself; test: SEC; size-exclusion profiles of the purified NOD1/RIP2 and NOD2/RIP2 fusion proteins
[4] = biological target: the molecule itself; test: cryo-EM structure; helical reconstruction of core RIP2–CARD–EM filaments, 4.1 Å (FSC = 0.143), Relion 2.0
[5] = biological target: the molecule itself; test: negative stain EM; FLAG-tagged proteins overexpressed in HEK293T, purified with anti-FLAG M2 agarose beads and concentrated; filaments looked for

B1: SNAP–RIP2–CARD (domain or fragment, human, UniProt O43353 432-540, looked up)
chain: QPGIAQQWIQSKREDIVNQMTEACLNQSLDALLSRDLIMKEDYELVSTKPTRTSKVRQLLDTTDIQGEEFAKVIVQKLKDNKQMGLQPYPEILVVSRSPSLNLLQNKSM
modifications: BG-Alexa Fluor 647 on monomers, BG-Alexa Fluor 488 on seeds (native gel assay)
notes: RIP2 (RIPK2), human, CARD domain residues 432–540; a 3C protease site lies between SNAP and the CARD; the methods also name a RIP2–CARD (432–540)–SNAP; also called SNAP–RIP2–CARD seeds; SNAP–RIP2–CARD monomers; source: E. coli BL21(DE3), purified (Ni-NTA, SEC): oligomeric seed fraction; not shown: SNAP-tag, N-terminal, kept
**Q.** Does B1 bind [1]?
**A.** Result: binds

B2: core RIP2–CARD filament (SNAP removed) (domain or fragment, human, UniProt O43353 432-540, looked up)
chain: QPGIAQQWIQSKREDIVNQMTEACLNQSLDALLSRDLIMKEDYELVSTKPTRTSKVRQLLDTTDIQGEEFAKVIVQKLKDNKQMGLQPYPEILVVSRSPSLNLLQNKSM
notes: RIP2 (RIPK2), human, CARD domain residues 432–540; also called 3C-protease-digested core RIP2–CARD thin filament; source: E. coli BL21(DE3); extended SNAP–RIP2–CARD filaments digested with 3C protease, purified (Superose 6); not shown: SNAP-tag, N-terminal, cleaved
**Q.** Does B2 bind [2]?
**A.** Result: binds

B3: top-down NOD2/RIP2 fusion construct (other)
chain: QPGIAQQWIQSKERDIVNQMTEACLNQSLDALLSRDLIMKEDYELVSTKPTRTSKVRQLLDTTDIQGEEFAKVIVQKLKDNKQMGLQPYPEILVVSRSPSLNLLQNKSMMCSQEAFQAQRSQLVELLVSGSLEGFESVLDWLLSWEVLSWEDYEGFHLLGQPLSHLARRLLDTVWNKGTWACQKLIAAAQEAQADSQSPKLHGCWDPHSLHPARDLQSHRPAIVRRLHSHVENMLDLAWERGFVSQYECDEIRLPIFTPSQRARRLLDLATVKANGLAAFLLQHVQELPVPLALPLEAATCK
**Q.** B3 was tested. Which “stoichiometry N” value [3] did it give?
**A.** Its value is ~4.

B4: top-down NOD1/RIP2 fusion construct (other)
chain: QPGIAQQWIQSKERDIVNQMTEACLNQSLDALLSRDLIMKEDYELVSTKPTRTSKVRQLLDTTDIQGEEFAKVIVQKLKDNKQMGLQPYPEILVVSRSPSLNLLQNKSMMEEQGHSEMEIIPSESHPHIQLLKSNRELLVTHIRNTQCLVDNLLKNDYFSAEDAEIVCACPTQPDKVRKILDLVQSKGEEVSEFFLYLLQQLADAYVDLRPWLLEIGFS
**Q.** Which “stoichiometry N” value [3] does the source give for B4 here?
**A.** The value was ~4.

B5: RIP2–CARD–EM (domain or fragment, human)
chain: VDEALREAQTKSAQPGIAQQWIQSKREDIVNQMTEACLNQSLDALLSRDLIMKEDYELVSTKPTRTSKVRQLLDTTDIQGEEFAKVIVQKLKDNKQMGLQPYPEILVVSRS
notes: 13 extra amino acids (13aa) attached to the N-terminus of residue 432 of RIP2–CARD; RIP2 (RIPK2), human, CARD domain 432–529 (last 11 residues of 432–540 removed); also called core RIP2–CARD–EM; RIP2–CARD (432–529); source: E. coli BL21(DE3); not shown: SNAP-tag, N-terminal, cleaved
**Q.** Does B5 bind [4]?
**A.** Result: binds

B6: FLAG–RIP2-kinase-NLRC4–CARD (other, human, UniProt O43353 1-431, looked up)
chain: MNGEAICSALPTIPYHKLADLRYLSRGASGTVSSARHADWRVQVAVKHLHIHTPLLDSERKDVLREAEILHKARFSYILPILGICNEPEFLGIVTEYMPNGSLNELLHRKTEYPDVAWPLRFRILHEIALGVNYLHNMTPPLLHHDLKTQNILLDNEFHVKIADFGLSKWRMMSLSQSRSSKSAPEGGTIIYMPPENYEPGQKSRASIKHDIYSYAVITWEVLSRKQPFEDVTNPLQIMYSVSQGHRPVINEESLPYDIPHRARMISLIESGWAQNPDERPSFLKCLIELEPVLRTFEEITFLEAVIQLKKTKLQSVSSAIHLCDKKKMELSLNIPVNHGPQEESCGSSQLHENSGSPETSRSLPAPQDNDFLSRKAQDCYFMKLHHCPGNHSWDSTISGSQRAAFCDHKTTPCSSAIINPLSTAGNSERLMNFIKDNSRALIQRMGMTVIKQITDDLFVWNVLNREEVNIICCEKVEQDAARGIIHMILKKGSESCNLFLKSLKEWNYPLFQDLNGQSLFHQTSEGDLDD
notes: RIP2 (RIPK2), human, what is left of 1–540 when the CARD domain (432–540) is replaced; NLRC4 CARD, human, residues 1–100, in place of the RIP2–CARD domain; the limit 431 is worked out from the replaced stretch 432–540; also called chimeric RIP2; NLRC4–CARD swapped construct; source: HEK293T, transfected; purified from cellular extracts (EM); in total cellular extracts (sedimentation); not shown: …
**Q.** Does B6 bind [5]?
**A.** Result: binds

Source: article PMC6255760 (Nature Communications, 2018)
